{"source": "patent US20100297135A1", "key": {"[1]": {"target": "human GM-CSF mutant M5 (I101 to V117 replaced by murine sequence) (human)", "sequence (P04141 other isoform, or with tags, fused parts or gaps mutant)": "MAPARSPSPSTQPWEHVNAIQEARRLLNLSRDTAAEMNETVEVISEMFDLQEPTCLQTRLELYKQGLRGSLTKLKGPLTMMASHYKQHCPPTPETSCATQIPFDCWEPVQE", "assay": "semi-quantitative ELISA; GM-CSF polypeptide coated in 2-fold dilutions (x axis = coating concentration), BD antibody fixed at 310 ng/ml, rabbit anti-rat IgG-HRP, absorbance 450 nm"}, "[2]": {"target": "human GM-CSF mutant M5b (S96 to N110 replaced by murine sequence) (human)", "sequence (P04141 other isoform, or with tags, fused parts or gaps mutant)": "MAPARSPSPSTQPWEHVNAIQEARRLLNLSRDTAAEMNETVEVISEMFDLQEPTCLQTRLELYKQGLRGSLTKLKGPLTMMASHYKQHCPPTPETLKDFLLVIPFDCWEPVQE", "assay": "semi-quantitative ELISA; GM-CSF polypeptide coated in 2-fold dilutions (x axis = coating concentration), BD antibody fixed at 310 ng/ml, rabbit anti-rat IgG-HRP, absorbance 450 nm"}, "[3]": {"target": "wild type human GM-CSF (human) (UniProt P04141)", "sequence (P04141 other isoform, or with tags, fused parts or gaps limits assumed)": "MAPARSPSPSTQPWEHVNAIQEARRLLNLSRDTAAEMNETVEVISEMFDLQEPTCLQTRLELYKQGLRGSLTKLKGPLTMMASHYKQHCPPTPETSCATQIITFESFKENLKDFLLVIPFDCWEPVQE", "assay": "SPR (Biacore), human GM-CSF coated on CM5 chip, antibody injected"}}, "data": [{"substance": "commercially available rat anti-human GM-CSF antibody from BD Biosciences (Cat No. 554501)", "values": [{"measurement": "EC50 (read off the curve)", "setting": "[1]", "value": 300, "unit": "µg/mL"}, {"measurement": "EC50 (read off the curve)", "setting": "[2]", "value": 400, "unit": "µg/mL"}, {"measurement": "Ka", "setting": "[3]", "value": "> 5.2e+09", "unit": "M⁻¹"}, {"measurement": "Kd", "setting": "[3]", "value": "< 190", "unit": "pM"}, {"measurement": "koff", "setting": "[3]", "value": "< 1e-05", "unit": "s⁻¹"}, {"measurement": "kon", "setting": "[3]", "value": 52000, "unit": "M⁻¹ s⁻¹"}]}]}
